Data set [1] concerns the target T1, His-maltose-binding protein (MBP)-CHIP fusion protein, wild type (human), Q9UNE7.
T1 chain: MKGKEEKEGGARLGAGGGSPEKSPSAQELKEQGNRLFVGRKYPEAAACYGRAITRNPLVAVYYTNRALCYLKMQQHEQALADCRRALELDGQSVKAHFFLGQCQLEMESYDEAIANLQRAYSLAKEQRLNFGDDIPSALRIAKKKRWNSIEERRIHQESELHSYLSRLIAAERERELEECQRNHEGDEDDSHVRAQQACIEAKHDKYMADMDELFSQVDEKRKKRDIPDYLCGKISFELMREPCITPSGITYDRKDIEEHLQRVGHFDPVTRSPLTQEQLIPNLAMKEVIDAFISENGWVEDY
The data set can be described thus: SEC; 1 mg MBP-CHIP fusion protein, Superdex 200 Increase 10/300 GL, 20 mM NaH2PO4 pH 7.4, 0.3 ml/min, 4°C; self-association (monomers, dimers, higher oligomers). To be noted: remark: other sources report otherwise. On the technique in general: SEC sorts molecules by how far they enter the pores of the column.

Data set [2] deals with the molecule itself. The data set can be described thus: native gel or EMSA; 10 ug MBP fusion protein on a 12% NativePAGE Bis-Tris gel, Coomassie Blue staining; self-association (oligomeric states). For orientation: A gel shift assay detects complexes by their altered migration in electrophoresis.
Data set [3] deals with the molecule itself. The data set can be described thus: SEC; 1 mg MBP-CHIP fusion protein, Superdex 200 Increase 10/300 GL, 20 mM NaH2PO4 pH 7.4, 0.3 ml/min, 4°C; self-association (monomers, dimers, higher oligomers).

Residue numbers refer to the chain shown, from its start. In names and notes the source's numbering stands.

B1: His-maltose-binding protein (MBP)-CHIP fusion protein, wild type, Q9UNE7-1 1-303 (enzyme)
chain: T1 chain
In general, stoichiometry N refers to a count of units in the complex or per binding partner. B1 showed a stoichiometry N in data set [1] of 2.

B2: His-MBP-CHIP fusion protein, S236T (enzyme, human, UniProt Q9UNE7-1 1-303, looked up)
chain: T1 chain with S236T
notes: CHIP (STUB1), human, full-length cDNA in pETM-41, pathogenic SCAR16 variant S236T; Variant found in patients; made by site-directed mutagenesis; also called MBP-CHIP S236T; source: E. coli BL21-CodonPlus (DE3)-RP, purified (Ni-NTA)
B2: the binding result in data set [2] is given as “binds”.

B3: His-MBP-CHIP fusion protein, K145Q (enzyme, human, UniProt Q9UNE7-1 1-303, looked up)
chain: T1 chain with K145Q
notes: CHIP (STUB1), human, full-length cDNA in pETM-41, pathogenic SCAR16 variant K145Q; Variant found in patients; made by site-directed mutagenesis; also called MBP-CHIP K145Q; source: E. coli BL21-CodonPlus (DE3)-RP, purified (Ni-NTA)
Take B3: the binding result in data set [2] is “binds”.

B4: His-MBP-CHIP fusion protein, T246M (enzyme, human, UniProt Q9UNE7-1 1-303, looked up)
chain: T1 chain with T246M
notes: CHIP (STUB1), human, full-length cDNA in pETM-41, pathogenic SCAR16 variant T246M; Variant found in patients; made by site-directed mutagenesis; also called CHIP-T246M; MBP-CHIP T246M; source: E. coli BL21-CodonPlus (DE3)-RP, purified (Ni-NTA)
B4: in data set [2], the binding result is listed as “binds”.

B5: His-MBP-CHIP fusion protein, M211I (enzyme, human, UniProt Q9UNE7-1 1-303, looked up)
chain: T1 chain with M211I
notes: CHIP (STUB1), human, full-length cDNA in pETM-41, pathogenic SCAR16 variant M211I; Variant found in patients; made by site-directed mutagenesis; also called MBP-CHIP M211I; source: E. coli BL21-CodonPlus (DE3)-RP, purified (Ni-NTA)
In the case of B5, the binding result in data set [2] was “binds”.

B6: His-MBP-CHIP fusion protein, N65S (enzyme, human, UniProt Q9UNE7-1 1-303, looked up)
chain: T1 chain with N65S
notes: CHIP (STUB1), human, full-length cDNA in pETM-41, pathogenic SCAR16 variant N65S; Variant found in patients; made by site-directed mutagenesis; also called CHIP-N65S; MBP-CHIP N65S; source: E. coli BL21-CodonPlus (DE3)-RP, purified (Ni-NTA)
For the molecule B6, the “stoichiometry N” value in data set [3] was found to be 2.

For the origin of these results see PMC5408658, “In vitro characterization of six STUB1 variants in spinocerebellar ataxia 16 reveals altered structural properties for the encoded CHIP proteins” (Bioscience Reports, 2017).
